Columns and labels:
Experiment in all cases: IP/MS, LZTR1 R810W-FLAG, U87
[1] = target: ASXL1 (human, UniProt Q8IXJ9 1-1541, limits assumed)
In short: (§1)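 Extracted peptides in 3% acetonitrile/0.1% formic acid ran on a 50 cm C18 column into an Orbitrap Fusion, with MaxQuant identification and spectral counting.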

[2] = target: T1, LONP2 (human, UniProt Q86WA8 2-852, limits assumed)
T1 sequence (looked up): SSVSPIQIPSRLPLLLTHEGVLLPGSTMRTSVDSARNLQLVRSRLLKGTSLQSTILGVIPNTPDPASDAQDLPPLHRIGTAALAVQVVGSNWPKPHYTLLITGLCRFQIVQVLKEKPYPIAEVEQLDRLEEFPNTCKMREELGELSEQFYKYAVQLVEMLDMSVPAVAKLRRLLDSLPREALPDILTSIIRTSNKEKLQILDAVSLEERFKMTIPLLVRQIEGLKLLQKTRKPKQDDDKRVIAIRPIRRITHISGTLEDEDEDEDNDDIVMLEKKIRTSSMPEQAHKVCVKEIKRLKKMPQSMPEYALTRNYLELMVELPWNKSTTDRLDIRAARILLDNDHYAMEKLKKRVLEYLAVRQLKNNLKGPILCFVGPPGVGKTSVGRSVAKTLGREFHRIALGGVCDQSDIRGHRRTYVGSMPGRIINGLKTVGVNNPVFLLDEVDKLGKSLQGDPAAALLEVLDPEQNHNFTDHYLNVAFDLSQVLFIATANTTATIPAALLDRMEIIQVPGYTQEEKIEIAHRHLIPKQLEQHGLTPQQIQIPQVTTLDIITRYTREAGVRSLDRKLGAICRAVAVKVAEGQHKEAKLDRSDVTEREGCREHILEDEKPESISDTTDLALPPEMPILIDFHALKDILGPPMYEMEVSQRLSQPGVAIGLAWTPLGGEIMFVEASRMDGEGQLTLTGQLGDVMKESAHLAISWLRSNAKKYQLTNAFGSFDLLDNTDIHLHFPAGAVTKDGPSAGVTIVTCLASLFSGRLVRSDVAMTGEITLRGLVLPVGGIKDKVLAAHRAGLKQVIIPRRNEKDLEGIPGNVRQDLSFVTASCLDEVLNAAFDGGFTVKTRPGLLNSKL
In short: as §1

[3] = target: T2, UBE4B (human, UniProt O95155 1-1302, limits assumed)
T2 sequence (looked up): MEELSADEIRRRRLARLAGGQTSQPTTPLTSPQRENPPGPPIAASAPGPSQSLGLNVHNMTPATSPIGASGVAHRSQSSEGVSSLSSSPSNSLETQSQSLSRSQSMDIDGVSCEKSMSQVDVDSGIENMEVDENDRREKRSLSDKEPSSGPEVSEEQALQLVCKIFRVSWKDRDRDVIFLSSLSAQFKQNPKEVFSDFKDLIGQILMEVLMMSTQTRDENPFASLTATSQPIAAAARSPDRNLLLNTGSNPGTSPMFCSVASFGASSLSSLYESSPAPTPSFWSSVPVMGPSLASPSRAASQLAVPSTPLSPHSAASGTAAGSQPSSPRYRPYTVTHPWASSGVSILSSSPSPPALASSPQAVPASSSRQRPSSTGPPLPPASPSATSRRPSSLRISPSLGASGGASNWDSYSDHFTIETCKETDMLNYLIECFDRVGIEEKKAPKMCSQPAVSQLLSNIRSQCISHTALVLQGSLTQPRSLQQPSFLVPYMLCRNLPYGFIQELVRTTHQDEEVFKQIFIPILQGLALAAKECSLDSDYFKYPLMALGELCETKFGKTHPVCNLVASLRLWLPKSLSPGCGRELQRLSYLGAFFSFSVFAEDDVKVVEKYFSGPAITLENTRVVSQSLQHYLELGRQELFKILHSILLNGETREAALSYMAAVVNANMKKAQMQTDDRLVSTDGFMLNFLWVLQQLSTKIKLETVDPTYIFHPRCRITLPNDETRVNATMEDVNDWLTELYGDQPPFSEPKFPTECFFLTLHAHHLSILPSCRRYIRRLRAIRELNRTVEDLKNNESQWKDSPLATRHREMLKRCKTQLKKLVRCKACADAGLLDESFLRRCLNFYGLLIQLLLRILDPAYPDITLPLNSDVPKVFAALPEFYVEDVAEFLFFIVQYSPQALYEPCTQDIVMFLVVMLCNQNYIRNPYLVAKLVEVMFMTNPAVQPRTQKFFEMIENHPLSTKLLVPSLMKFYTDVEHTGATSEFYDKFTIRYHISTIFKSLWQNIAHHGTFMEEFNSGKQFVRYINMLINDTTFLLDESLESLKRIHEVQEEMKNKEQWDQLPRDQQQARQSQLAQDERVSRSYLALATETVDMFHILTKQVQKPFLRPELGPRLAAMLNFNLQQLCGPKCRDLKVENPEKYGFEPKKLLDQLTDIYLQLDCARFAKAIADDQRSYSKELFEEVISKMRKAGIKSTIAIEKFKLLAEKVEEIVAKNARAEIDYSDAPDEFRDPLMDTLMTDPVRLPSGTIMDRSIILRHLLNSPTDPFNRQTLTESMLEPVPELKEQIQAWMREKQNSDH
In short: as §1

Measured: binding result

Sequence of ASXL1 (Q8IXJ9 whole entry, the tested form may be a part): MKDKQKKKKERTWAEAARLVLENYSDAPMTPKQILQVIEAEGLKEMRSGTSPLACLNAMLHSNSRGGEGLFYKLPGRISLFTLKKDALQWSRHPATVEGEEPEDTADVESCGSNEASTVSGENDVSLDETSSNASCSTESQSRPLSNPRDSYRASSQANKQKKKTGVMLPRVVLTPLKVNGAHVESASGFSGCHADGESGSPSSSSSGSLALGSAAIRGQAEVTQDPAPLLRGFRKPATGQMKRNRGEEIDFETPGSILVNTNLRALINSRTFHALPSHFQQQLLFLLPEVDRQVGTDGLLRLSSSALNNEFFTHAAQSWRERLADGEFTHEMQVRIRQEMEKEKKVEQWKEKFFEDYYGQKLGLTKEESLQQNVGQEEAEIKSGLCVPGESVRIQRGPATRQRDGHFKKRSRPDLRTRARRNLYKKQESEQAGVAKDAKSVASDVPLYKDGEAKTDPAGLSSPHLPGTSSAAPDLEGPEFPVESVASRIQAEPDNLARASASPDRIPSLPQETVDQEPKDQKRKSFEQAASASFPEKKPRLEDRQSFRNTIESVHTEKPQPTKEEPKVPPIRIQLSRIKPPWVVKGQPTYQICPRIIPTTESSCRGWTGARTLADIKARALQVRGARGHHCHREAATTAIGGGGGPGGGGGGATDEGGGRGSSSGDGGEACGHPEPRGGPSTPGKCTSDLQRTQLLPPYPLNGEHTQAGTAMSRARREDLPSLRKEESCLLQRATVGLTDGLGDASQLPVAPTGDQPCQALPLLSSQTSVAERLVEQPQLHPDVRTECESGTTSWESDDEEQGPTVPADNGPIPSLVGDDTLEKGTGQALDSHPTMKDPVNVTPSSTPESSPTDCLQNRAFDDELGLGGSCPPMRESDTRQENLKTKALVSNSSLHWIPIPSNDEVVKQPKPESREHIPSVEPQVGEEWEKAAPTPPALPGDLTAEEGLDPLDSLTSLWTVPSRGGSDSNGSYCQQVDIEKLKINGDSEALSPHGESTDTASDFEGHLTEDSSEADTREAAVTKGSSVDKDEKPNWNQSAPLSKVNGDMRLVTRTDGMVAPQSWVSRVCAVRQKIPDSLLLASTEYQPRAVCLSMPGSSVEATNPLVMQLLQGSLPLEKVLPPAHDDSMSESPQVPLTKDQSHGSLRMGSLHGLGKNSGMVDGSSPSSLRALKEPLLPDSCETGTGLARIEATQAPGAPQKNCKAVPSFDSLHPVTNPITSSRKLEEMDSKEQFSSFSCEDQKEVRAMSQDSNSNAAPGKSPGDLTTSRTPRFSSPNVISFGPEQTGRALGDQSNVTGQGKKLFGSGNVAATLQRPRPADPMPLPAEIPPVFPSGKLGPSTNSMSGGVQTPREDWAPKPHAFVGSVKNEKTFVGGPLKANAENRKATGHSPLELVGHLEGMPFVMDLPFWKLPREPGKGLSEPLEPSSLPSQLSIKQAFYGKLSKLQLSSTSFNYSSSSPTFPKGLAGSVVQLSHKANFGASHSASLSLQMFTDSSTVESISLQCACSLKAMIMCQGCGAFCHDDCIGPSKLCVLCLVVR

B1: LZTR1 R810W-FLAG (other, human, UniProt Q8N653 1-840, looked up)
chain: MAGPGSTGGQIGAAALAGGARSKVAPSVDFDHSCSDSVEYLTLNFGPFETVHRWRRLPPCDEFVGARRSKHTVVAYKDAIYVFGGDNGKTMLNDLLRFDVKDCSWCRAFTTGTPPAPRYHHSAVVYGSSMFVFGGYTGDIYSNSNLKNKNDLFEYKFATGQWTEWKIEGRLPVARSAHGATVYSDKLWIFAGYDGNARLNDMWTIGLQDRELTCWEEVAQSGEIPPSCCNFPVAVCRDKMFVFSGQSGAKITNNLFQFEFKDKTWTRIPTEHLLRGSPPPPQRRYGHTMVAFDRHLYVFGGAADNTLPNELHCYDVDFQTWEVVQPSSDSEVGGAEVPERACASEEVPTLTYEERVGFKKSRDVFGLDFGTTSAKQPTQPASELPSGRLFHAAAVISDAMYIFGGTVDNNIRSGEMYRFQFSCYPKCTLHEDYGRLWESRQFCDVEFVLGEKEECVQGHVAIVTARSRWLRRKITQARERLAQKLEQEAAPVPREAPGVAAGGARPPLLHVAIREAEARPFEVLMQFLYTDKIKYPRKGHVEDVLLIMDVYKLALSFQLCRLEQLCRQYIEASVDLQNVLVVCESAARLQLSQLKEHCLNFVVKESHFNQVIMMKEFERLSSPLIVEIVRRKQQPPPRTPLDQPVDIGTSLIQDMKAYLEGAGAEFCDITLLLDGHPRPAHKAILAARSSYFEAMFRSFMPEDGQVNISIGEMVPSRQAFESMLRYIYYGEVNMPPEDSLYLFAAPYYYGFYNNRLQAYCKQNLEMNVTVQNVLQILEAADKTQALDMKRHCLHIIVHQFTKVSKLPTLWSLSQQLLLDIIDSLASHISDKQCAELGADI
notes: Stably expressed in U87 cells by lentivirus; also called LZTR1-FLAG-R810W; LZTR1 RW; not shown: FLAG tag
binds: all assays above

Reference: patent publication US20250262210A1 (TRUSTEES OF COLUMBIA UNIVERSITY IN THE CITY OF NEW YORK, published 2025)
